Measurements from the supplement of paper PMC7877785.
± gives the uncertainty stated by the source.

Assay: self-splicing fitness, log relative to wild type (ln ratio); higher = more splicing; Tetrahymena group I intron in knt gene, E. coli kanamycin selection, DiMSum; sequences stand for … in CUCUCU…GGAGGGAAAAGUUAUCAGGCAUGCACCUGGUAGCUAGUCUUUAAACCAAUAGAUUGCAUCGGUUUAAAAGGCAAGACCGUCAAAUUGCGGGAAAGGGGUCAACAGCCGUUCAGUACCAAGUCUCAGGGGAAACUUUGAGAUGGCCUUGCAAAGGGUAUGGUAAUAAGCUGACGGACAUGGUCCUAACCACGCAGCCAAGUCCUAAGUCAACAGAUCUUCUGUUGAUAUGGAUGCAGUUCACAGACUAAAUGUCGGUCGGGGAAGAUGUAUUCUUCUCAUAAGAUAUAGUCGGACCUCUCCUUAAUGGGAGCUAGCGGAUGAAGUGAUGCAACACUGGAGCCGCUGGGAACUAAUUUGUAUGCGAAAGUAUAUUGAUUAGUUUUGGAGUACUCGUGGUCG
Outline: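 DiMSum derived fitness as the error-weighted combination of fold changes across replicates, kanamycin versus no kanamycin, normalised to wild type. E. coli BL21(DE3) held the library, which randomised all eight P1ex-region intron nucleotides within the knt kanamycin-resistance gene on pET-22b(+). Six replicate transformations grew overnight at 37°C or 30°C on LB agar with or without 25 μg/mL kanamycin, also containing 100 μg/mL carbenicillin, 50 μM IPTG and 0.2% rhamnose, and pooled colonies were amplicon-sequenced on an Illumina HiSeq 2500.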

Sequence	self-splicing fitness (ln) (30 °C)	self-splicing fitness (ln) (37 °C)
UAAAAGCAAUAUUACGGUAC	-3.76 ± 0.16	-1.42 ± 0.16
UAAAAGCAAUAUUACGGUAU	-3.74 ± 0.23	-1.85 ± 0.21
UAAAAGCAAUAUUACGUACA	-1.05 ± 0.1	-0.00957 ± 0.14
UAAAAGCAAUAUUACGUUUU	-3.26 ± 0.13	-2.82 ± 0.16
UAACAGCAAUAUUACGAAGA	-2.48 ± 0.14	-1.33 ± 0.11
UAACAGCAAUAUUACGACAG	-0.741 ± 0.052	-0.435 ± 0.073
UAACAGCAAUAUUACGACUG	-0.343 ± 0.077	0.429 ± 0.099
UAACAGCAAUAUUACGAGAC	-4.18 ± 0.26	-2.78 ± 0.29
UAACAGCAAUAUUACGCACA	-0.339 ± 0.069	0.114 ± 0.099
UAACAGCAAUAUUACGCACG	-1.17 ± 0.058	-0.421 ± 0.072
UAACAGCAAUAUUACGCGGA	-2.12 ± 0.11	0.0542 ± 0.076
UAACAGCAAUAUUACGCGUG	-0.718 ± 0.041	0.173 ± 0.055
UAACAGCAAUAUUACGGCCU	-1.21 ± 0.13	-0.33 ± 0.15
UAACAGCAAUAUUACGGGCC	-3.47 ± 0.26	-2.98 ± 0.26
UAACAGCAAUAUUACGGGGU	-4.16 ± 0.14	-2.2 ± 0.12
UAACAGCAAUAUUACGGGUU	-3.91 ± 0.15	-3.58 ± 0.19
UAACAGCAAUAUUACGGUUA	-1.59 ± 0.1	-0.652 ± 0.096
UAACAGCAAUAUUACGUAUA	-1.4 ± 0.062	-0.86 ± 0.069
UAACAGCAAUAUUACGUCGU	-3.43 ± 0.14	-2.04 ± 0.12
UAACAGCAAUAUUACGUGCA	-0.792 ± 0.063	-0.445 ± 0.098
UAACAGCAAUAUUACGUGGC	-4.59 ± 0.29	-2.56 ± 0.23
UAACAGCAAUAUUACGUGGG	-4.35 ± 0.15	-2.75 ± 0.091
UAACAGCAAUAUUACGUUGC	–	-2.84 ± 0.25
UAAGAGCAAUAUUACGAAAA	–	-2.26 ± 0.38
UAAGAGCAAUAUUACGAACA	-2.71 ± 0.42	-1.26 ± 0.27

Sequence	self-splicing fitness (ln) (30 °C)	self-splicing fitness (ln) (37 °C)
UAAGAGCAAUAUUACGAAUU	-3.74 ± 0.43	-1.84 ± 0.49
UAAGAGCAAUAUUACGCCGU	–	-2.26 ± 0.43
UAAGAGCAAUAUUACGCGAA	-2.74 ± 0.22	-1.6 ± 0.16
UAAGAGCAAUAUUACGCGAU	-3.86 ± 0.26	-2.56 ± 0.24
UAAGAGCAAUAUUACGCGGG	-3.49 ± 0.37	-3.91 ± 0.36
UAAGAGCAAUAUUACGGAAU	-3.52 ± 0.41	-2.14 ± 0.41
UAAGAGCAAUAUUACGGACU	–	-2.75 ± 0.41
UAAGAGCAAUAUUACGGCAC	–	-1.16 ± 0.48
UAAGAGCAAUAUUACGGCUA	-1.03 ± 0.1	-0.141 ± 0.11
UAAGAGCAAUAUUACGGGCA	-2.73 ± 0.26	-1.99 ± 0.24
UAAGAGCAAUAUUACGGGCC	-2.08 ± 0.32	-0.897 ± 0.3
UAAGAGCAAUAUUACGGGCG	-2.73 ± 0.16	-2.29 ± 0.19
UAAGAGCAAUAUUACGGUUG	-3.21 ± 0.2	-1.87 ± 0.18
UAAGAGCAAUAUUACGUGGA	-2.84 ± 0.28	-2.14 ± 0.3
UAAGAGCAAUAUUACGUGUG	-2.99 ± 0.18	-1.4 ± 0.14
UAAGAGCAAUAUUACGUUCG	-1.48 ± 0.11	-0.784 ± 0.14
UAAGAGCAAUAUUACGUUCU	-3.45 ± 0.28	-1.55 ± 0.19
UAAUAGCAAUAUUACGAAUC	-4.21 ± 0.31	-2.34 ± 0.39
UAAUAGCAAUAUUACGACGG	-1.51 ± 0.11	-0.463 ± 0.13
UAAUAGCAAUAUUACGAGAG	–	-2.68 ± 0.3
UAAUAGCAAUAUUACGAGUG	-1.11 ± 0.08	-0.572 ± 0.09
UAAUAGCAAUAUUACGCACA	-0.694 ± 0.14	-0.0269 ± 0.15
UAAUAGCAAUAUUACGCAGU	-3.55 ± 0.37	-2.1 ± 0.34
UAAUAGCAAUAUUACGCCCU	-1.59 ± 0.4	-0.36 ± 0.38
UAAUAGCAAUAUUACGCGCG	-0.452 ± 0.11	-0.333 ± 0.14
